Data taken from patent publication US20230099801A1, “RESTORATION OF T CELL ACTIVITY VIA THE CD39/CD73 AXIS” (INNATE PHARMA, priority 2017, published 2023).
Entries after “also recorded” stand apart in the source; their conditions may differ.

Experiments:
[1] = target: T1, Human CD39-L4 (NTPDase5, ENTPD5) (Homo sapiens, UniProt O75356); assay: ELISA titration on CD39-L4; format: binding
T1 sequence (O75356 25-428): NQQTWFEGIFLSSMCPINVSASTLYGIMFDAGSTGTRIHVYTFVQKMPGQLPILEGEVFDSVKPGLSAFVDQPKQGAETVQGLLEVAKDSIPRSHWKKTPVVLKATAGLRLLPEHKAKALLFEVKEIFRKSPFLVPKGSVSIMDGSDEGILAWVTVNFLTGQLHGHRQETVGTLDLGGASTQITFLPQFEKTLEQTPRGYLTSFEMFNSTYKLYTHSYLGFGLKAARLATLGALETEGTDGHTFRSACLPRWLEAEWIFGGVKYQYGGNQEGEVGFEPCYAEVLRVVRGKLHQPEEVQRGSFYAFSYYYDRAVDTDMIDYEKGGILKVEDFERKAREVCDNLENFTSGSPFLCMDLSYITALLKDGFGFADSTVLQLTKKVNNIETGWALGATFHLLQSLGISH
Procedure: Wells were washed in TBS Tween 20, and further saturated 2H at RT in TBS Blocking buffer. Dose range concentration of primary antibody was incubated in TBS blocking buffer for 2h at RT. Wells were washed in TBS Tween 20. […] Optical density was measured on Enspire™ at OD=450.

CD4 T cells = assay: T cell proliferation assay in presence of added ATP, CD4 T cells; format: cell-based, human
Procedure: Peripheral blood from healthy donors was obtained from EFS, and mononuclear cells were isolated on a Ficoll gradient. Lymphocytes were further enriched on a 52% Percoll gradient by collection of the cell pellets and stained with a Cell Trace dye (Thermofisher) following the TDS provided by the manufacturer. […] Inhibition of T cell proliferation was achieved by addition of ATP (200 μM). T cell proliferation and ability of Abs to block immune suppressive effect of AMP were assessed by flow cytometry by quantifying the dye dilution in the proliferating T cell subset.
Percentage of proliferating T cells vs. anti-CD73 Ab concentration is plotted in graphs using GraphPad Prism software.

[2] = target: T2, human Ramos lymphoma cells (Homo sapiens, UniProt P49961); assay: Antibody titration on Ramos cells by flow cytometry; format: binding
T2 construct: host or cells: Ramos human lymphoma cells
T2 sequence (P49961 1-510): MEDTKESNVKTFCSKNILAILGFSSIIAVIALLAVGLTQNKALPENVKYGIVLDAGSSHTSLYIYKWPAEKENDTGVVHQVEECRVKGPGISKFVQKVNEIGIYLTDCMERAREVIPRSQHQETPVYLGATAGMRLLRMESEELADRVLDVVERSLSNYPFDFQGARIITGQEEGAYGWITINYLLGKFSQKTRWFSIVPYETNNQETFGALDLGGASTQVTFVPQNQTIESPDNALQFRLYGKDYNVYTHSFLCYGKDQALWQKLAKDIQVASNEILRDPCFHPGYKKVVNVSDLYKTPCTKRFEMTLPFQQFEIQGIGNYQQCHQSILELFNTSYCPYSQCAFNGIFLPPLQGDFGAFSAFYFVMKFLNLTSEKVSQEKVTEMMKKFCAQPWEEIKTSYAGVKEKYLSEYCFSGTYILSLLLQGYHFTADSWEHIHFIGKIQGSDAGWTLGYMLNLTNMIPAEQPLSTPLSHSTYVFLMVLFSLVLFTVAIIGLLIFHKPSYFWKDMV
Procedure: (§1) Cells were incubated with various concentration of unlabeled anti-CD39 antibody from 30 μg/ml to 5×10^−4 μg/ml, for 30 minutes at 4° C. After washes, cells were incubated with Goat anti-mouse H+L labeled secondary antibody for 30 min at 4° C.

[3] = target: T3, CD39 expressed by Ramos human lymphoma cells (Homo sapiens, UniProt P49961); assay: Inhibition of cellular CD39 ATPase activity in Ramos cells; format: cell-based
T3 construct: host or cells: Ramos human lymphoma cells
T3 sequence (P49961 1-510): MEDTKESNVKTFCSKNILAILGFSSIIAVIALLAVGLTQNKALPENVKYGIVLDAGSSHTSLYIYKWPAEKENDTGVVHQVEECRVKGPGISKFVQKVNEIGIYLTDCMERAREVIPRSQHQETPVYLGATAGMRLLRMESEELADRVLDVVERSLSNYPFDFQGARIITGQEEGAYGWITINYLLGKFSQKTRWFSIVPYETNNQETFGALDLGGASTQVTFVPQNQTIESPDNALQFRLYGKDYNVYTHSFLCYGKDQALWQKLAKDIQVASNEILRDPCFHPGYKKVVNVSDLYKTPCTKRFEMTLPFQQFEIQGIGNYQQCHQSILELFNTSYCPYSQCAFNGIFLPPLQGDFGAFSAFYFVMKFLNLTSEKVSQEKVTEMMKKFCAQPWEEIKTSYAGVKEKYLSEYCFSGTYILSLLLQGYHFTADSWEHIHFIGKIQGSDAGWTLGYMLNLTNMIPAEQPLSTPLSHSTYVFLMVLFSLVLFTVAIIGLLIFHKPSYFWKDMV
Procedure: (§2) The inhibition of the CD39 enzymatic activity in CD39-expressing cells by antibodies was evaluated using Cell Titer Glo™ (Promega, reference G7571) that allows assessment of ATP hydrolysis through use of a reagent that generates a luminescent signal proportional to the amount of ATP present. The assay was thus designed to permit assessment of the inhibition of ATP hydrolyzed by CD39 in the cell culture supernatant. Briefly, 5×10^4 Ramos human lymphoma cells, 5×10^3 human CD39-, cynomolgus CD39—and mouse CD39-expressing CHO cells, were incubated 1 hour at 37° C. with anti-CD39 antibodies from 30 μg/ml to 5×10^−4 μg/ml. Cells were then incubated with 20 μM ATP for 1 additional hour at 37° C. Plates were centrifuged for 2 min at 400 g and 50 μl cell supernatant are transferred in a luminescence microplate (white wells). 50 μl CellTiter-Glo® Reagent (CTG) was added to the supernatant and emitted light was quantified after a 5 min incubation in the dark using a Enspire™ luminometer. Anti-CD39 antibody efficacy was determined by comparing emitted light in presence of antibody with ATP alone (maximal light emission) and ATP together with cells (minimal light emission).

allogenic CD4 T cells = assay: Mixed lymphocytes reaction (MLR) of ATP-activated MoDC with allogenic CD4 T cells; format: cell-based, human; details: MoDC activated in presence of ATP
Procedure: Briefly, human monocytes were purified from human healthy blood and differentiated into MoDC in presence of GM-CSF and IL-4 during 6 days. Then MoDC were activated in presence of ATP (Sigma, 0.25-1 mM) during 24 hours and DC activation were assessed by analyzing CD80, CD83 and HLA-DR expression by flow cytometry. […] LPS (Invivogen, 10 ng/ml) was used as positive control. To assess resulting effect of ATP-mediated DC activation on CD4 T cells activation, ATP-activated DC were washed and then incubated with allogenic CD4 T cells (ratio 1 MoDC/4 T cells) for a mixed lymphocytes reaction (MLR) during 5 days. T cells activation and proliferation were analyzed through CD25 expression and Cell Trace Violet dilution by flow cytometry (FIG. 8).

[4] = target: T4, CHO cells expressing human CD39 (CHO-huCD39) (Homo sapiens, UniProt P49961); assay: Antibody titration on CHO-huCD39 cells by flow cytometry; format: binding
T4 construct: expressed in transfected cells; host or cells: CHO cells
T4 sequence (P49961 1-510): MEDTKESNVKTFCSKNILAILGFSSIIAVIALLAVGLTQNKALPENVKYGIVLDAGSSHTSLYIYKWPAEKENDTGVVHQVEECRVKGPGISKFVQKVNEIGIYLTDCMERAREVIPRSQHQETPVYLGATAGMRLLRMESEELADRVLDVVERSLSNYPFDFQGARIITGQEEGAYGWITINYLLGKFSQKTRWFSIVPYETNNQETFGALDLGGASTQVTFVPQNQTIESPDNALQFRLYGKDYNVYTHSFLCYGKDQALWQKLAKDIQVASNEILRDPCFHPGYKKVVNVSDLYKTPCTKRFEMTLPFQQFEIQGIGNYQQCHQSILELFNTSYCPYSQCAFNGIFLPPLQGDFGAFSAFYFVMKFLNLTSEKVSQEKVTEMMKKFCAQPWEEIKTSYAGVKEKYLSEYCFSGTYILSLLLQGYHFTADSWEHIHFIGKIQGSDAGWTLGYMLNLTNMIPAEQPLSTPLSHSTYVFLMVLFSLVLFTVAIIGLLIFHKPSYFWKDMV
Procedure: as §1

human CD39 (CHO-huCD39) = target: T5, human CD39 (CHO-huCD39) (Homo sapiens, UniProt P49961); assay: Inhibition of cellular CD39 ATPase activity in CHO-huCD39 cells; format: cell-based
T5 construct: expressed in transfected cells; host or cells: CHO cells
T5 sequence (P49961 1-510): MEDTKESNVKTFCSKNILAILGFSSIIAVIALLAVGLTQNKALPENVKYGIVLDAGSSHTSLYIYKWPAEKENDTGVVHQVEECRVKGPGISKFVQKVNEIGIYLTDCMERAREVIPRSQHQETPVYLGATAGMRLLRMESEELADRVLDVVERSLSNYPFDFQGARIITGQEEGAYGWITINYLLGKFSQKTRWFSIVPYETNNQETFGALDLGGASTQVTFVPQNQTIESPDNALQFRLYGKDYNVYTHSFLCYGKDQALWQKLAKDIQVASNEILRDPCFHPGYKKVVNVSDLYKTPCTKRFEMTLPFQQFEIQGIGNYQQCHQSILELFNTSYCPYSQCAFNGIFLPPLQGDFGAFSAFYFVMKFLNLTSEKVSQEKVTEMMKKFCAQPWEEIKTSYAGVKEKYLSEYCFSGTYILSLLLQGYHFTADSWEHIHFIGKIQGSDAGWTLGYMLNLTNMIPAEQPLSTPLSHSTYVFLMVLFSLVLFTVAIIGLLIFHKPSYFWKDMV
Procedure: as §2

B1: I-394: anti-CD39 antibody, VH SEQ ID NO: 6, VL SEQ ID NO: 7; heavy/light chains SEQ ID NOS: 52 and 53 (antibody)
heavy: EVQLQQSGPELVKPGASVKMSCKASGYTFTDYNMHWVKQSHGRTLEWIGYIVPLNGGSTFNQKFKGRATLTVNTSSRTAYMELRSLTSEDSAAYYCARGGTRFAYWGQGTLVTVSAASTKGPSVFPLAPSSKSTSGGTAALGCLVKDYFPEPVTVSWNSGALTSGVHTFPAVLQSSGLYSLSSVVTVPSSSLGTQTYICNVNHKPSNTKVDKRVEPKSCDKTHTCPPCPAPEAEGAPSVFLFPPKPKDTLMISRTPEVTCVVVDVSHEDPEVKFNWYVDGVEVHNAKTKPREEQYNSTYRVVSVLTVLHQDWLNGKEYKCKVSNKALPSSIEKTISKAKGQPREPQVYTLPPSREEMTKNQVSLTCLVKGFYPSDIAVEWESNGQPENNYKTTPPVLDSDGSFFLYSKLTVDKSRWQQGNVFSCSVMHEALHNHYTQKSLSLSPGK
light: DIVLTQSPASLAVSLGQRATISCRASESVDNFGVSFMYWFQQKPGQPPNLLIYGASNQGSGVPARFRGSGSGTDFSLNIHPMEADDTAMYFCQQTKEVPYTFGGGTKLEIKRTVAAPSVFIFPPSDEQLKSGTASVVCLLNNFYPREAKVQWKVDNALQSGNSQESVTEQDSKDSTYSLSSTLTLSKADYEKHKVYACEVTHQGLSSPVTKSFNRGEC
modifications: Chimeric homo sapiens mus musculus
[1]
  binding to CD39-L4 in ELISA: not to any of the human isoforms
CD4 T cells; added ATP 200 μM, anti-CD39 at 0.01, 0.1, 1 μg/ml
  potentiation of anti-CD73 antibodies in restoring CD4 T cell proliferation: strongly potentiation
CD4 T cells; anti-CD39 antibody at 0.01 μg/ml
  increase in potency of anti-CD73 antibodies: approximately 1 log
CD4 T cells; anti-CD39 antibody at 0.1 μg/ml
  increase in potency of anti-CD73 antibodies: approximately 4 log
CD4 T cells; concentrations of 0.1 μg/ml and 1 μg/ml, added ATP
  enhancement of CD4 T cell proliferation, alone without anti-CD73: remarkable enhancement
[2]
  binding to Ramos lymphoma cells: bound; also recorded: binds
[3]
  blocking CD39 enzymatic activity in tumor (Ramos) cells: highly potent
  potency in Ramos cells compared to all other antibodies tested: greater potency
[3]; Ramos cells
  maximum inhibition achieved, cellular CD39: 81.6%
Allogenic CD4 T cells
  T cell proliferation and activation (CD25 expression, Cell Trace Violet dilution) in MLR: higher T cell proliferation and activation
[4]
  binding to cells expressing human CD39: bound; also recorded: binds
Human CD39 (CHO-huCD39)
  blocking CD39 enzymatic activity in cells expressing human CD39: blocks; also recorded: highly potent
